# Laboratory results taken from article PMC10126545.
# B1: Fab 1F8 (recombinant Fab of the P1-elicited mouse monoclonal antibody 1F8) (Fab, V domains shown)
# VH: QVQLQQSGAELMKPGASVKISCKATGYTFSSYWIEWVKQRPGHGLEWIGEILPGSGRTNYDERFKGKATFTADTSSNTAYMQLSSLTSEDSAVYYCARPRIYGMDYWGQGTSVTVSS
# VL: DIVLTQSPASLAVSLGQRATISCKASQSVDFDGDTYMSWYQQKPGQPPKLLIYAASKLESGIPARFSGSGSGTDFTLNIHPVEEEDAATYFCQQSNEDPWTFGGGTKLEIK
# Experiments:
# [1] = target: COBRA P1 HA wild type, CHO expressed, for binding assays; experiment: BLI; Octet RED384; HA loaded on anti-Penta-His biosensors (10 μg/mL), Fab 1F8 15 nM to 0.556 nM in solution; PBS, 1% BSA, 0.05% Tween 20; 30 °C; 1:1 model with mass transport limitation; mean of two independent experiments
# [2] = target: COBRA P1 HA N127D mutant, CHO expressed, for binding assays; experiment: as above
binder,measurement,setting,value
B1,Kd,[1],2.95 nM
same,Kd,[2],0.86 nM
